Test results from the nanobody polyreactivity screen of Harvey et al. (2022).

Experiment: yeast display, Sf9 membrane polyspecificity reagent, FACS + sequencing; frameworks hold sequencing errors
Procedure, shortened: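 Using colony PCR, genes from sorted yeast display clones were amplified, then sequenced on MiSeq at 2 × 250 and filtered by CDR length. The clones had been stained with 10% biotinylated, detergent-solubilized Sf9 membrane reagent for 1 hour at 4 °C and sorted by FACS into low and high (top ~1%) gates on anti-HA and streptavidin fluorescence. Polyreactivity labels come from the gate of origin.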

Sequence | polyreactivity (PSR sort gate)
QVQLVESGGGLVQAGGSLRLSCAASGRIFWANAMGWYRQAPGKERELVATISRSGGTTYYADSVKGRFTISRDNAKNTVYLQMNSLKPEATAVYYCAAEDWSLYDYGDRLWYSPYYYWGQGTQVTVSS | high polyreactivity
PVQLVESGGGLGQAGGSLRLSCAASGIIFNDYAMGWYRQAPGKERELVASIRSNTGSTNYADSVKGRFTISRDYAKNTVYLPMNSLKPEETAVSDCAADYLPDYGPRGGYWGQGTQVTVSS | low polyreactivity
QVQLVESGGGLVQAGGSLRLSCAASGSTFWLYAMGWYRQAPGKERELVAAISSTGNTNYADSVKGRFTISRDNAKNTVYLQMNSLKPEDTAVYYCAADSWDYDSRMDYWGQGTQVTVSS | low polyreactivity
QVQLVETRGGLVQAGGILRFSCAASGFTFSSNDMGWYRQAPAKEREFVAVIDSGDITNYADSVKGRFTISRDNAKNTVYLQMNSLKPEDTAVYYCAARYYAAGIGSRYDYWGQGTQVTVSS | high polyreactivity
QVQLQESGGGLVQAGGSLRLSCAASGSIFVSVTMGWYRQAPGKERELVASIGRGSTTNHADSVKGRFTISRDNATNIFYLLMNSLNPEDTAVYYCAALESYGKYHGYWGQGTQVTVSS | low polyreactivity
QVQLVESGGGLVQAGGSLRLSCAASGRIFPFYAMGWYRQAPGKETELVAVINASGGGTYYADSVKGRFTISRDNAKNTVYLQMNSLKPEDTAVYYCAATYSPFDFYYWGQGTQVTVSS | low polyreactivity
QVQLVESGGGLVQAGGSLRLSCAASGIIFYWYAMGWYRQAPGKERELVAAITRVGSTNYADSVKGRFTISRDNAKNTVYLQMNSLKPEDTAVYYCAADLWQRHYLVGFGIRYDYWGQGTQVTVSS | low polyreactivity
QVQLVESGGGLVQAGGSLRLSCAASGSTFNHNAMGWYRQAPGKERELVAAITSGTSTYYADSVKGRFTISRDNAKNTVYLQMNSLKPEDTAVYYCAADSPWGGGYFVLYNYWGQGTQVTVSS | low polyreactivity
QVQLVESGGGLVQAGGSLRLSCAASGSTFAAYAMGWYRQAPGKERELVAAISGGRTYYADSVKGRFTISRDNAKNTVYLEMYSLKPEDTAVYYCAKRYFYYTAFNAYGYWGQGTQVTVSS | high polyreactivity
QVQLVESGGGLVQAGGSLRLSCAASGRIFGRYAMGWYRQAPGKEREVVATITRNGGGTYADSVKGRFTISRDNAKNTVYLQMNSLKPEDTAVYYCAVDTAAAWERRGFDSWGQGTQVTVSS | low polyreactivity
QVQLVESGGGLVQAGGSLRLRCAASGRTFYPYAMGWYRQAPGKERELVAAINWSGTSTYYADSVKGRFTISRDNAKNTVYLQMNSLKPEDTAVYYCAAKQYPVLHYSLTEADMDYWGQGTQVTVSS | low polyreactivity
QVQLVESGGGLVQAGGSLRLSCAASGSTFSSYTMGWYRQAPGKERELVATINSRGDNTYYADSVKGRFTISRDNAKNTVYLQMNSLKPEDTAVYYCAARSRRHDFDYWGQGTQVTVSS | high polyreactivity
QVQLVESGGGLVQAGGSLRLSCAASGRIIGTNAMGWYRQAPGKEREMVAAITWRGGSTYYADSVKGRFTYSRDNAKNTVYLQKNSLKPEDTAVYYCNKDPPRFSGLDENDWGQGTQVTVSS | low polyreactivity
QVQLVDSGGGLVQAGGSLRLRCAASGRTFTPYAMGWYRQAPGQERELVATISSGTSTNYADSVKGRFTISRDNAKNTVYLQMNSLKPEDTAVYDCAADGYTYKFDYWGQGTQVTVSS | low polyreactivity
QVQLVESGGGLVQAGGSLRLSCAASGFIFSGYNMGWYRQAPGKERELVAAITKRGGRTYYADSVKWRFTISRDNAKNTVYLQMNSLKPEDTAVYYCNVDVKVYSDETTDGDYWGQGTQVTVSS | high polyreactivity
QVQLVESGGGLVLAGGSLRLSCAASGRIFRWYAMGWYRQAPGKERELDATISSTGGSTYYADSVKGRFTISRDNAKNTVYLQMNSLKPEDTAVYYCNAVVYGIFLYAWYDYWGQVTQVTVSS | low polyreactivity
QVQLVESGGGLVQAGGSLRLSCAASGITLGYYVMGWYRQAPGKERELVAAISSSGGRTYYADSVKGRFTISRDNAKNTVYLQMNSLKPEDTAVYYCAADLGRGIYDYWGQGTQVTVSS | low polyreactivity
QVQLVESGGGLFQAGGSLRLSCAPSGIFRYYVMGWYIQAPGKERELVAAISWGGGSTYYADSVKGRFTISRDNPKNTVYLQMNSLKPEDTAVYYCAARDLRKLYSRYPYYYWGQGTQVTVSS | high polyreactivity
QVQLVESGGGLVQAGGSLRLSCAASGRTSWYYAMGWYRQAPGKERELVAAISVRAGSTYYADSVKGRFTISRDNAKNTVYLQMNSLKPEDTAVYYCAREYSPYTSRRDYWGQGTQVTVSS | high polyreactivity
QVQLEESGGGLVQAGGSLRIICAASGRTFQLYAMGWYRQAPGKERELVAAITWSSGRTSYADSVKGRFTISRDNAKNTVYLQMNSLKPEDTAVYYCAADVWGGLLPGYDYWGQGTQVTVSS | high polyreactivity
QVQLVESGGGLVQAGGSLRLSCAASGGILNPNAMGWYRQAPGKERELVAAISNGGGTKYADSVKWRFTISRDNAKNTVYLQMNSLKPEDTAVYYCAARQWWSYDYWGKGTQVTVSS | high polyreactivity

Sequence | polyreactivity (PSR sort gate)
QVQLVESGGGLVQAGGSLRLSCAASGRTFKTYTMGWYRQEPGKERELVAVISSGGGSTNYADSVKGRFTISRDKAKNTVNLQMNSRKPEDTAVYYCAARKPGRPKYRYDYWGQGSQVTVSS | low polyreactivity
QVQLVESGGGLDQAGGSLRLSCAASGSIFETYVMGWYRQAPGKERELVAAINSGGSTYYADSVKGRFTISRDNAKNTVYLQMNSLKPEDTAVYYFAADSPYGYYEGDYWGQGTQVTVSS | low polyreactivity
QVQLVESGGGLVQAGGSLRLSCAASGLIFRYKAMGWYRQAPGKERELVAAISRSRGTTYYADSVKGRFTISRDNAKNTVYLQMNSLKPEDTAVYYCATRISQSYYNYGYWGQGTQVTVSS | high polyreactivity
QVQLVESGGGVVQAGGSLRLSCAASGRIFRNNAMGWYRQAPGKERVLVAGIRGGGSTYYADSVKGRFTISRDNAKNTVYLQMNSLKPEDTAVYYCNAEASRYVGYGAWQTERDYWGQGTQVTVSS | low polyreactivity
QVQLVESGGGLVQAGGSLRLSCAASGSTFAYNAMGGYRKAPGKERELVATISTDGSTYADSVKGRFTISRDNAKNTVYLQMNSLKPEDTAVYYCNADGHPSDPGYDYWGQGTHVTVSS | low polyreactivity
QVQLVESGGGLVQAGGSLRLSCAASGITFRYYAMGWYRQAPGKERELVAAISSGGGTYYADSVKGRFTISRDNAKNTVYLQMNSLKPEDTAVYYCNVLRLYPSMDYWGQGTQVTVSS | high polyreactivity
QVQLVESGGGLVQAGGSLRLSCAASGRIFPFYAMGWYRKAPGKERELVARITLSGGSTYYADSVKGRFTISRDNAKNTVYLQMNSLKPEDTAVYYCAADRTSWSVLDFDYWGQGTQVTVSS | low polyreactivity
QVQLVESGGGLVQAGGSLRLSCAASGRTFSRYAMGWYRQAPGKERELVAAISKSSGTTSYADSVKGRFTISRDNAKNTVYLQMKSQKPEDTAVYYCAAGITGRYYGVRFSEDYWGQGTQVTVSS | high polyreactivity
QVQLEESGGGLVQAGGSLRLSCAGSGRNFGVNTMRWYRQATGKERDLVAAISFSGVSTYYADSVKGRFTISRDNAKNTVYLQMNSLKPEDTPVYYCAAVPYRQYPCGGYWGQGTQVTVSS | low polyreactivity
QVQLVESGGGLVQAGGSLRLSCADSGLTFEGYAMGWNRQAPGKERELVAAITWSGGNTYYADSVKGRFTSSRDNAKKTVYLQMNSLKPEDTAVYYCAAQRPSRDSRPFEYWGQGTQVTVSS | low polyreactivity
QVQLVESGGGLVQAGGSLRLSFAASGRIFLYNTMGWYRQAPGKERELVARISWSGGSTKYADSVKGRFTISRDNAKNTVYLQMNSLKPEDTAVYYCNAGYFTEYNSWGQGTQVTVSS | high polyreactivity
QVQLVESGGGLVQAGGSLRLSCAASGRTFATYAMAWYRQAPGKERELVAAISRSGSTTYYADSVKGRFTISRDNAKNTVYLQMNSLKPEDTAVYYCNAKFRKADYDYWGQGTQVTVSS | high polyreactivity
QVQLVESGGGLVQAGGSLRLSCAASGRNFKIYTMGWYRQAPGKERELVAAISSSGRTYYADSVKGRFTISRDNAKNTVYLQMNSLKPEDTAVYYCAAVPYTRWKGADGDYWGQGTQVTVSS | high polyreactivity
QVQLVESGGGLVQAGGSLRLSCAASGSIFGVYAMGWYRQAPGKERELVASITSGSSTNYADSVKGRFTISRDNAKNTVYLQMNSLKPEDTAVYYCAAGRTSRSRRYYRFFYAGDYWGQGTQVTVSS | low polyreactivity
QVQLVESGGGLVQAGGSLRLSCAASGSIFSLNAMGWYRQAPGKERELVAAISGRGGSTYYADSVKGRFTISRDNAKNTVYLQMNSLKPEDTAVYYCAARFSRTFLGYYYWGQGTQVTVSS | high polyreactivity
QVQLVESGGGLVQAGGSLRLSCAASGFTFTDYAMGWYRQAPGKERELVAAITKGGGRTYYADSVKGRFTISRDNAKNTVYLQMNSLKPEDTAVYYCNARYQVPYGYWGQGTQVTVSS | low polyreactivity
QVQLVESGGGLVQAGGSLRLSCAASGFTIVYYAMGWYRQAPGKERELVAAISATGGRTYYADSVKGRFTISRDNAKNTVYLQMNSLKPEDTAVYYCAVGLSGASSGMGYWGQGTQVTVSS | high polyreactivity
QVQLVESGGGLVQAGGSLRLSCAASGSTFTTYAMGWYRQAPGKERELVAAISTNGGRTFYADSVKGRFTISRDNAKNTVYLQMISLKPEDTAVYYCAAEYGLYAPGYYYWGQGTQVTVSS | low polyreactivity
QVQLVESGGGLVQAGGSLRLSCAASGSTFQTYAMGWYRQAPGKERELVASISYGVTTYYADSVKGRFTISRDNAKNTVYLQMNSLKPEDTAVYYCAREGYKWVYLSYGYWGQGTQVTVSS | low polyreactivity
QVQLVESGGGLVQAGGSLRLSCAASGITFAKYAMGWYRQAPGKERELVAAISTSGGSTYYADSVKGRFTISRDNAKNTVYLQMNSLKPEDTAVYYCNVDTYIWYYLRYYNYWGQGTQVTVSS | high polyreactivity
